Measured values from the nanobody polyreactivity screen of Harvey et al. (2022).

Assay: yeast display, Sf9 membrane polyspecificity reagent, FACS + sequencing; frameworks hold sequencing errors
In short: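 Nanobodies came from a synthetic yeast display library in Saccharomyces cerevisiae BJ5465, induced with galactose for 36–48 hours and stained for 1 hour at 4 °C with 10% biotinylated, detergent-solubilized Sf9 membrane reagent. Cells were enriched on streptavidin microbeads and then FACS-sorted, with low and high (top ~1%) gates set on anti-HA fluorescence for expression and streptavidin fluorescence for reagent binding. Each polyreactivity label reflects the gate a clone came from. Genes were amplified by colony PCR, sequenced by MiSeq 2 × 250 and filtered by CDR length.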
In the case of “QVQLVESGGGLVQAGGSLRLSCAASGCTRWYAMGWYRQAPGKERELVAAINGRGVSTYYAVSVKGRFRISRDNAKHTVYLQMNSLKQADTAVYYCAAYAYYDRYRRYDYWGQGTQVTVST”, the “polyreactivity (PSR sort gate)” value is reported as “low polyreactivity”.
In the case of “QVQLVESGGGLVQAGGSLRLSCAASGDIFDAYAMGWYRQAPGKERELVAAISRSGGSTYYADSVKGRFTISRDNAKNTVYLQMNSLKPEDTAVYYCATRFSRRYVRYDYWGQGTQVTVSS”, the “polyreactivity (PSR sort gate)” value is reported as “high polyreactivity”.
In the case of “QVQLVESGGGLVQAGGSLRLSCAASGFFFAGYAMGWYRQAPGKERELVAAISSGGGSTYYADSVKGRFTISRDNAKNTVYLQMNSLKPEDTAVYYCAARRLYPPGYYYWGQGTQVTVSS”, the “polyreactivity (PSR sort gate)” value is reported as “high polyreactivity”.
For “QVQLVESGGGLVQAGGSLRLSCAASGFFFGFYAMGWYRQAPGKERELVASISGRGGRTSYADSVKGRFTISRDNAKITVYLQMNSLKPEDTAVYYCNKAGYGVSRKYDYWGQGTQVTVSS”, the “polyreactivity (PSR sort gate)” value was “high polyreactivity”.
For “QVQLVESGGGLVQAGGSLRLSCAASGFICFDYDMGWYRQAPGKERELVAAINWTGGSTDYADSVKGRFTISRDNAKNTVYLQMNSLKPEDTAVYYCAAEGQDGRFYWGQGTQVTVSS”, the “polyreactivity (PSR sort gate)” value was “low polyreactivity”.
In the case of “QVQLVESGGGLVQAGGSLRLSCAASGFIDAYTMGWYRQAPGKERELVAAMTWSGGRTYYADSVKGRFTISRDNAKNTVYLQLYSLKPEDTAVYYCAKDVTPYSPDDDYWGQGTQVTVSS”, the “polyreactivity (PSR sort gate)” value is reported as “low polyreactivity”.
With “QVQLVESGGGLVQAGGSLRLSCAASGFIFACYAMAWYRQAPGKERELVATISSSGARTYYADSVKGRFTISRDNAKNTVYLQMNSLKPEDTAVYYCSAAGRYRPVSPYSGYNYWGQGTQVTVSS” the “polyreactivity (PSR sort gate)” value was “high polyreactivity”.
For “QVQLVESGGGLVQAGGSLRLSCAASGFIFAEYAMGWYRQAPGKERELVVAIDVGGGSTYYADSVKGRFTISRDNAKNTVYLQMNSLKPEDTAVYYCAATQYGYWVPYQGFDYWGQGTQVTVSS”, the “polyreactivity (PSR sort gate)” value was “low polyreactivity”.
With “QVQLVESGGGLVQAGGSLRLSCAASGFIFAFYDKGWYRQAPGKERELVAAISWGGSTYYADSVKGRVTISRDNAKNTVYLQMNSLKPEDTAVYYCAARLSRSYLYGYWGQGTQVTVSS” the “polyreactivity (PSR sort gate)” value was “high polyreactivity”.
In the case of “QVQLVESGGGLVQAGGSLRLSCAASGFIFAINAMGWYRQAPGKERELVAAITSSGGSTYYADSVKGRFTISRDNAKNTVYLQMNSLKPEDTAVYYCAAPQGNPSQDWEDYWGQGTQVTVSS”, the “polyreactivity (PSR sort gate)” value is reported as “low polyreactivity”.
For “QVQLVESGGGLVQAGGSLRLSCAASGFIFAPYAMGWYRQAPGKERELVAAISWSGGSTYYADSVKGRFTISRDNAKNTVYLQMNSLKPEDTAVYYCAAAGYITRYDRYDYWGQGTQVTVSS”, the “polyreactivity (PSR sort gate)” value was “high polyreactivity”.
For “QVQLVESGGGLVQAGGSLRLSCAASGFIFAQNAMGWSRQAPGTERELVAAITSSGVSTYYADSVKGRFTISRDNAKNTVYLQMNSLKPEDTAVYYCNRTPRYTIRYGYWGQGTQVTVSS”, the “polyreactivity (PSR sort gate)” value was “high polyreactivity”.
With “QVQLVESGGGLVQAGGSLRLSCAASGFIFARNAMGWYRQAPGKERELVATITRSSGSTYYADSVKGRFTISRDNAKNTVYLQMNSLKPEDTAVYYCNARLYGTFWGQGTQVTVSS” the “polyreactivity (PSR sort gate)” value was “high polyreactivity”.
For “QVQLVESGGGLVQAGGSLRLSCAASGFIFARNTMGWYRQAPGKERELVAAITKSGGSTYYADSVKGRFTISRDNAKNTVYLQMNSPKPEDTSVYYCAARSWWLRGIYGFDSWGQGTQVTVSS”, the “polyreactivity (PSR sort gate)” value was “low polyreactivity”.
With “QVQLVESGGGLVQAGGSLRLSCAASGFIFARNVMGWSRQAPGKERELVAAISWSGGSTYYADSVKGRFTISRDNAKNTVYLQMNSLKPEDTAVYYCNKQFPFSKYYIMGYWGQGTQVTVSS” the “polyreactivity (PSR sort gate)” value was “high polyreactivity”.
For “QVQLVESGGGLVQAGGSLRLSCAASGFIFARYAMGWYIQAPGKERELVAAITRRGGSTYYADSVKGRFTISRDNAKNTVYLQMNSLKPEDTAVYYCAAVTSTSWGSVSYRYGVGYDYWGQGTQVTVSS”, the “polyreactivity (PSR sort gate)” value was “high polyreactivity”.
With “QVQLVESGGGLVQAGGSLRLSCAASGFIFARYAMGWYREAPGKERELLAAITARGGSTYYADSVKGRFTISRDNAKNTVYLQMNSLKPEDTAVYYCADVSGYSTGGYRNRYNYWGQGTHVTVSS” the “polyreactivity (PSR sort gate)” value was “high polyreactivity”.
With “QVQLVESGGGLVQAGGSLRLSCAASGFIFARYAMGWYRQAPGKERELVASITGRGTSTRYADSVKGRFTISRDNAKNTVYLQMNSLKPEDTAVFYCNAARLSYSWVPSEMDYWGQGTQVTVSS” the “polyreactivity (PSR sort gate)” value was “high polyreactivity”.
With “QVQLVESGGGLVQAGGSLRLSCAASGFIFASNAMGWYRQAPGKERELVASISRSGGNTYYADSVKGRFTISRDNAKNTVYLQMNSLKPEDTAVYYCAAEYIFHYYDIFDYWGQGTQVTVSS” the “polyreactivity (PSR sort gate)” value was “high polyreactivity”.
In the case of “QVQLVESGGGLVQAGGSLRLSCAASGFIFASYAMGWYRQAPGKERELVAAITQSGGITYYADSVKGRFTISRDNAKNTVYLQMTSLKPEDTAVYYCNTPLLKRTTRGRERNYWGQGTQVTVSS”, the “polyreactivity (PSR sort gate)” value is reported as “low polyreactivity”.
In the case of “QVQLVESGGGLVQAGGSLRLSCAASGFIFASYTMGRTRQAPGKERELVAAISRAGSTYYADSVKGRFTISRDNAKNTVYLQMNSLKPEDTAVYYCNAVSWRTSRYDYWGQGTQVTVSS”, the “polyreactivity (PSR sort gate)” value is reported as “high polyreactivity”.
